Test results taken from patent US20260103686A1, “MICROBIAL STRAIN, PROTEIN, AND METHOD FOR PRODUCING GALLIC ACID USING MICROBIAL STRAIN OR PROTEIN” (UNIVERSITY OF TSUKUBA, priority 2022, published 2026).

Test system: O=C(O)c1ccc(O)c(O)c1
Experiment: purified protein, by the assay type
Settings: other: PCA substrate, 200 µM NADPH, 10 µM FAD, pH 7.9, 25° C., 340 nm
Procedure: The cell-free extracts were subjected to a HisTrap HP column (GE healthcare) which was equilibrated with an equilibration buffer (20 mM Tris-HCl buffer (pH 7.9), 20 mM imidazole), and then fractions eluted with an eluent (20 mM Tris-HCl buffer (pH 7.9), 500 mM imidazole) were collected.
The protein concentrations of the purified enzyme liquids were measured using Bio-Rad Protein Assay Dye Reagent Concentrate (Bio-Rad, USA), and the purified enzyme liquids were diluted to 1 of mg/mL with a buffer. Thus, purified enzyme liquids protocatechuic acid 5-hydroxylases, HgPobA, HyPobA, PoPobA, HgPobA-TY and PaPobA, were prepared.
Using the purified enzyme liquids of HgPobA, HgPobA-TY, PoPobA, HyPobA and PaPobA described above, a reaction kinetic analysis was conducted.

Pseudomonas aeruginosa-derived PobA (PaPobA), p-hydroxybenzoate hydroxylase, wild type, SEQ ID NO: 28 (Pseudomonas aeruginosa PAO1)
Km: 140 µM
